Measurements reported in US20240165282A1, “CONFORMATIONAL CONSTRAINED SOMATOSTATIN RECEPTOR 3 PEPTIDE LIGANDS AND THEIR CONJUGATES AND USES THEREOF” (STARGET PHARMA LTD., priority 2021, published 2024).
*1 amine or outer side, *2 acyl side, *3 side chain or, on linkers, in order; H or OH if unused. Bridges are numbered along the chain shown (N, C = ends). Where no end group is shown, it is not given here. [ ]: non-standard residue; d: D form. The star is where a group is joined. DOTA = O=C(O)CN1CCN(CC(=O)O)CCN(CC(=O)*)CCN(CC(=O)O)CC1; N(2-mercaptoethyl)Gly = O=C(CN(CCS[*:3])[*:1])[*:2]; 4Amb = NCc1ccc(C(=O)O)cc1; Orn = NCCC[C@H](N)C(=O)O; NTEG = not defined here; Aoc = NCCCCCCCC(=O)O; GABA = NCCCC(=O)O

How the values were obtained:
Experiment in all cases: 125I-Tyr11-SRIF-14 displacement
[1] = biological target: human cloned somatostatin receptor 3 (human) (UniProt P32745)
[2] = biological target: human cloned somatostatin receptor 1 (human) (UniProt P30872)
[3] = biological target: human cloned somatostatin receptor 5 (human) (UniProt P35346)
[4] = biological target: human cloned somatostatin receptor 2 (human) (UniProt P30874)
[5] = biological target: human cloned somatostatin receptor 4 (human) (UniProt P31391)
human cloned somatostatin receptor 4 (human), sequence (P31391 whole entry): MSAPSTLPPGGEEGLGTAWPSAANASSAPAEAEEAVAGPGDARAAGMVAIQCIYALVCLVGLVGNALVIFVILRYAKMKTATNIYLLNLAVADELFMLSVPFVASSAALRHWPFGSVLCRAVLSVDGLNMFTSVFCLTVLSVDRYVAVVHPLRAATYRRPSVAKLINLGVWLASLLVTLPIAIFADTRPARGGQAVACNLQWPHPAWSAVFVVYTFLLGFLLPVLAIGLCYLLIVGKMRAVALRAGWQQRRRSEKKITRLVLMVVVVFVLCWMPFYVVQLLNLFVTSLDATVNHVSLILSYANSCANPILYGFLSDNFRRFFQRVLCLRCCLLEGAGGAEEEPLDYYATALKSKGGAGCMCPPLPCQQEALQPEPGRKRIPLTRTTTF

human cloned somatostatin receptor 5 (human), sequence (P35346 whole entry): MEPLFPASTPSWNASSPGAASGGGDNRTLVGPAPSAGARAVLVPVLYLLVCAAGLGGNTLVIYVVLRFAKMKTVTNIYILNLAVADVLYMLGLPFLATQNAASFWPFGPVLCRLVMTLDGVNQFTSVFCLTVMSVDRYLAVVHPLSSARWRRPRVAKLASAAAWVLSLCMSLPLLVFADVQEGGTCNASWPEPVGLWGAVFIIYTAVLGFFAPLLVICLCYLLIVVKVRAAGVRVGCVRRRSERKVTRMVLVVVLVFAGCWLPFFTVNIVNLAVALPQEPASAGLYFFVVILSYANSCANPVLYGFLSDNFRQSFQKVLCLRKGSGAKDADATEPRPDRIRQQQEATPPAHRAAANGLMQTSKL
human cloned somatostatin receptor 3 (human), sequence (P32745 whole entry): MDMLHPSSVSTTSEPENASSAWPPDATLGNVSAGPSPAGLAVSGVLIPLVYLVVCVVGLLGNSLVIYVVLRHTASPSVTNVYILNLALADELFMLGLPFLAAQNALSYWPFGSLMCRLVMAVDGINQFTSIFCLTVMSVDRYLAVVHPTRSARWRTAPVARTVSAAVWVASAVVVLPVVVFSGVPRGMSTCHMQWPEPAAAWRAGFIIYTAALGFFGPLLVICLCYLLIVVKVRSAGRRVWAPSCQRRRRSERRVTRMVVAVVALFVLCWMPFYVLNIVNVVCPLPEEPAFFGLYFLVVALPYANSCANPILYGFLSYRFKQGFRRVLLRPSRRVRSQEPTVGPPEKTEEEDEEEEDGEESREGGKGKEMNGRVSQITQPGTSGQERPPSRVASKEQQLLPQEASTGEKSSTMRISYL
human cloned somatostatin receptor 2 (human), sequence (P30874 whole entry): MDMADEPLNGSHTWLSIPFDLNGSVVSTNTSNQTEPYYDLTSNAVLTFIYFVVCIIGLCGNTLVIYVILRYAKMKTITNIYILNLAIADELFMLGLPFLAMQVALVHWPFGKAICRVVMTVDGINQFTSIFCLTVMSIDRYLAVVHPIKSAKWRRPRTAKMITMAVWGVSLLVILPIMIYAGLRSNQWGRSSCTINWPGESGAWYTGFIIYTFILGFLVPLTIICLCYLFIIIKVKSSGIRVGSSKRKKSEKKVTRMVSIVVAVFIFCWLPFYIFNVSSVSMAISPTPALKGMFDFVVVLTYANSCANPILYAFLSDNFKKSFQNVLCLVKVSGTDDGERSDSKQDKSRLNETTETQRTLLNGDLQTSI
human cloned somatostatin receptor 1 (human), sequence (P30872 whole entry): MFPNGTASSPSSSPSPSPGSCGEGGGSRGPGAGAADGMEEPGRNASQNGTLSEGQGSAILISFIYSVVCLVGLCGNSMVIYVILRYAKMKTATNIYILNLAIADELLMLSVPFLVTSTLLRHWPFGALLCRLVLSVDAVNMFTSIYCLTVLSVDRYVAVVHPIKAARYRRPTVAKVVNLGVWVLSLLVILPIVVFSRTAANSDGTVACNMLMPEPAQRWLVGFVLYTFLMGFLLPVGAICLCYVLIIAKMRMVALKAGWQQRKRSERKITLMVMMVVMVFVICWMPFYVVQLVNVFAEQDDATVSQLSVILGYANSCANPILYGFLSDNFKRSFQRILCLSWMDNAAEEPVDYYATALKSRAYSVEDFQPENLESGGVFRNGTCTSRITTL

Binder | % displacement at 1 nM [1] [%] | % displacement at 10 nM [1] [%] | IC50 [1] [nM] | % displacement at 1 nM [2] [%] | % displacement at 10 nM [2] [%] | % displacement at 1 nM [3] [%] | % displacement at 10 nM [3] [%] | % displacement at 1 nM [4] [%] | % displacement at 10 nM [4] [%] | % displacement at 1 nM [5] [%] | % displacement at 10 nM [5] [%] | IC50 [2] [nM] | Ki [2] [nM] | IC50 [3] [nM] | Ki [3] [nM] | IC50 [4] [nM] | Ki [4] [nM] | Ki [1] [nM]
{DOTA}-[dF]KCF[dW]KTF[NTEG]-NH2 (disulfide 3-9; reading uncertain; also: Ga chelated by DOTA) [SEQ ID NO: 10] | 27 | 75 | 2.4 | – | – | – | – | – | – | – | – | – | – | – | – | – | – | –
{DOTA-GABA}-[dF]RCF[dW]KTF[N(2-mercaptoethyl)Gly]-NH2 (disulfide 3-9; also: Ga complex of DOTA) [SEQ ID NO: 8] | 61 | 88 | – | 0 | 10 | 0 | 15 | 0 | 10 | 5 | 4 | – | – | – | – | – | – | –
{DOTA}-[dF]KCF[dW]KTF[N(2-mercaptoethyl)Gly]-NH2 (disulfide 3-9; SMILES C[C@@H](O)[C@@H]1NC(=O)[C@H](CCCCN)NC(=O)[C@@H](Cc2c[nH]c3ccccc23)NC(=O)[C@H](Cc2ccccc2)NC(=O)[C@@H](NC(=O)[C@H](CCCCN)NC(=O)[C@@H](Cc2ccccc2)NC(=O)CN2CCN(CC(=O)O)CCN(CC(=O)O)CCN(CC(=O)O)CC2)CSSCCN(CC(N)=O)C(=O)[C@H](Cc2ccccc2)NC1=O) [SEQ ID NO: 9] | 59 | 91 | 1 | 4 | 10 | 0 | 12 | 0 | 0 | 0 | 0 | – | – | – | – | – | – | –
{DOTA}-G[dF]RCF[dW]KTF[N(2-mercaptoethyl)Gly]-NH2 (disulfide 4-10; SMILES C[C@@H](O)[C@@H]1NC(=O)[C@H](CCCCN)NC(=O)[C@@H](Cc2c[nH]c3ccccc23)NC(=O)[C@H](Cc2ccccc2)NC(=O)[C@@H](NC(=O)[C@H](CCCNC(=N)N)NC(=O)[C@@H](Cc2ccccc2)NC(=O)CNC(=O)CN2CCN(CC(=O)O)CCN(CC(=O)O)CCN(CC(=O)O)CC2)CSSCCN(CC(N)=O)C(=O)[C@H](Cc2ccccc2)NC1=O) [SEQ ID NO: 11] | 47 | 88 | – | 2 | 19 | 0 | 0 | 0 | 0 | 0 | 0 | – | – | – | – | – | – | –
{DOTA}-A[dF]RCF[dW]KTF[N(2-mercaptoethyl)Gly]-NH2 (disulfide 4-10; SMILES C[C@H](NC(=O)CN1CCN(CC(=O)O)CCN(CC(=O)O)CCN(CC(=O)O)CC1)C(=O)N[C@H](Cc1ccccc1)C(=O)N[C@@H](CCCNC(=N)N)C(=O)N[C@H]1CSSCCN(CC(N)=O)C(=O)[C@H](Cc2ccccc2)NC(=O)[C@H]([C@@H](C)O)NC(=O)[C@H](CCCCN)NC(=O)[C@@H](Cc2c[nH]c3ccccc23)NC(=O)[C@H](Cc2ccccc2)NC1=O) [SEQ ID NO: 12] | 64 | 93 | – | 0 | 10 | 0 | 13 | 0 | 0 | 0 | 0 | – | – | – | – | – | – | –
{DOTA-Aoc}-[dF]RCF[dW]KTF[N(2-mercaptoethyl)Gly]-NH2 (disulfide 3-9) [SEQ ID NO: 15] | 49 | 87 | – | 6 | 18 | 0 | 0 | 1 | 0 | 0 | 0 | – | – | – | – | – | – | –
K[dF]RCF[dW]KTF[N(2-mercaptoethyl)Gly]-NH2 (disulfide 4-10; not fully specified (residue 1, N-terminus); printed as (DOTA)2-Lys1-D-Phe2-Arg3-Cys4-Phe5-D-Trp6-Lys7-Thr8-Phe9-NTEG10-NH2 (cyclo 3-9); also: (DOTA)2 on Lys1, sites not given here) [SEQ ID NO: 16] | 47 | 88 | – | 0 | 5 | 0 | 3 | 6 | 2 | 0 | 0 | – | – | – | – | – | – | –
{DOTA-4Amb}-[dF]RCF[dW]KTF[N(2-mercaptoethyl)Gly]-NH2 (disulfide 3-9) [SEQ ID NO: 18] | 49 | 85 | – | 0 | 4 | 0 | 0 | 0 | 0 | 0 | 8 | – | – | – | – | – | – | –
{DOTA}-F[dF]RCF[dW]KTF[N(2-mercaptoethyl)Gly]-NH2 (disulfide 4-10; SMILES C[C@@H](O)[C@@H]1NC(=O)[C@H](CCCCN)NC(=O)[C@@H](Cc2c[nH]c3ccccc23)NC(=O)[C@H](Cc2ccccc2)NC(=O)[C@@H](NC(=O)[C@H](CCCNC(=N)N)NC(=O)[C@@H](Cc2ccccc2)NC(=O)[C@H](Cc2ccccc2)NC(=O)CN2CCN(CC(=O)O)CCN(CC(=O)O)CCN(CC(=O)O)CC2)CSSCCN(CC(N)=O)C(=O)[C@H](Cc2ccccc2)NC1=O) [SEQ ID NO: 20] | 66 | 95 | – | 8 | 14 | 0 | 0 | 0 | 2 | 0 | 0 | – | – | – | – | – | – | –
{DOTA}-[dF][Orn]CF[dW]KTF[N(2-mercaptoethyl)Gly]-NH2 (disulfide 3-9) [SEQ ID NO: 21] | 59 | 93 | – | 23 | 22 | 0 | 0 | 0 | 2 | 9 | 9 | – | – | – | – | – | – | –
{DOTA}-[dF]KCY[dW]KTF[N(2-mercaptoethyl)Gly]-NH2 (disulfide 3-9; SMILES C[C@@H](O)[C@@H]1NC(=O)[C@H](CCCCN)NC(=O)[C@@H](Cc2c[nH]c3ccccc23)NC(=O)[C@H](Cc2ccc(O)cc2)NC(=O)[C@@H](NC(=O)[C@H](CCCCN)NC(=O)[C@@H](Cc2ccccc2)NC(=O)CN2CCN(CC(=O)O)CCN(CC(=O)O)CCN(CC(=O)O)CC2)CSSCCN(CC(N)=O)C(=O)[C@H](Cc2ccccc2)NC1=O) [SEQ ID NO: 24] | 66 | 88 | – | – | – | – | – | – | – | – | – | – | – | – | – | – | – | –
H-[dF]RCF[dW]KTF[N(2-mercaptoethyl)Gly]-NH2 (disulfide 3-9; SMILES C[C@@H](O)[C@@H]1NC(=O)[C@H](CCCCN)NC(=O)[C@@H](Cc2c[nH]c3ccccc23)NC(=O)[C@H](Cc2ccccc2)NC(=O)[C@@H](NC(=O)[C@H](CCCNC(=N)N)NC(=O)[C@H](N)Cc2ccccc2)CSSCCN(CC(N)=O)C(=O)[C@H](Cc2ccccc2)NC1=O) [SEQ ID NO: 1] | – | – | 0.43 | – | – | – | – | – | – | – | – | 180 | 150 | 310 | 170 | 390 | 320 | 0.15
H-[dF]KCF[dW]KTF[N(2-mercaptoethyl)Gly]-NH2 (disulfide 3-9; SMILES C[C@@H](O)[C@@H]1NC(=O)[C@H](CCCCN)NC(=O)[C@@H](Cc2c[nH]c3ccccc23)NC(=O)[C@H](Cc2ccccc2)NC(=O)[C@@H](NC(=O)[C@H](CCCCN)NC(=O)[C@H](N)Cc2ccccc2)CSSCCN(CC(N)=O)C(=O)[C@H](Cc2ccccc2)NC1=O) [SEQ ID NO: 2] | – | – | 0.73 | – | – | – | – | – | – | – | – | – | – | – | – | – | – | 0.25
{DOTA}-[dF]RCF[dW]KTF[N(2-mercaptoethyl)Gly]-NH2 (disulfide 3-9; also: Cu complex of DOTA) [SEQ ID NO: 5] | – | – | 0.9 | – | – | – | – | – | – | – | – | 780 | 640 | 150 | 82 | 420 | 220 | –
{DOTA}-[dF]RCF[dW]KTF[N(2-mercaptoethyl)Gly]-NH2 (disulfide 3-9; also: Lu complex of DOTA) [SEQ ID NO: 6] | – | – | 0.9 | – | – | – | – | – | – | – | – | 310 | 260 | 86 | 48 | 210 | 110 | –
